Measurements reported in patent US12545899B2, “Luciferase enzymes for use with thermostable luciferins in bioluminescent assays” (Promega Corporation, priority 2018, dated 2026).

Legend:
[1] = Differential scanning fluorimetry (DSF) analysis; format: physicochemical; parameters: key to DSF Tm: melting temperature in °C (heated 30-95 °C at 1 °C/min); details: for DSF Tm: Table 7A; for DSF Tm (° C.): Table 7B
Protocol: To conduct the experiment, Sypro Orange (5000×) was diluted in water to 3× and combined with enzymes stored in 50 mM HEPES pH 7.5, 100 mM NaCl, 2 mM EDTA to a final concentration of 5×. Fluorescence was read at 60 second intervals as the reactions were heated at 1° C. per minute from 30-95° C. The change in fluorescence at each minute was calculated and plotted for each temperature in the range.
The luciferase enzyme variants generated were also evaluated using DSF analysis as shown in the representative results provided in Tables 7A and 7B above. To conduct the experiments, Sypro Orange (5000×) was diluted in water to 3× and combined with enzymes stored in 20 mM HEPES pH 7.5, 200 mM NaCl, 1 mM EDTA to a final concentration of 5×. Fluorescence was read at 60 second intervals as the reactions were heated at 1° C. per minute from 30-95° C. The change in fluorescence at each minute was calculated and plotted for each temperature in the range.

[2] = Brightness of additional luciferase enzyme variants with CS0280; format: biochemical; details: for Fold-improvement over ATG3707, CS0280 BG / Fold-improvement over ATG3707, CS0280 DR: Table 7A; for Fold-improvement over ATG3707, CS0280 BG / Fold-improvement over ATG3707, CS0280 DR / luminescence CS0280 BG / luminescence CS0280 DR: 1 mM CS0280; for Fold-improvement over ATG3707, CS0280 BG / luminescence CS0280 BG / Fold improvement over ATG3707, CS0280 BG: Bright-Glo buffer; for Fold-improvement over ATG3707, CS0280 DR / luminescence CS0280 DR / Fold improvement over ATG3707, CS0280 DR: Detection Reagent buffer; for luminescence CS0280 BG / luminescence CS0280 DR / Fold improvement over ATG3707, CS0280 BG / Fold improvement over ATG3707, CS0280 DR: Table 7B
Protocol: (§1) Additional luciferase enzyme variants were generated and evaluated for their stability and activity. To evaluate the additional luciferase enzyme variants, 0.005 mg/ml luciferase enzyme variant was mixed with 1 mM ATP+1 mM substrate in either Bright-Glo™ (BG) or Detection Reagent (DR) buffers. […] (Table 7A is colored according to their relative luminescence values within each column across a red to green color spectrum with the lowest values colored red and the highest values colored green.)

[3] = Brightness of additional luciferase enzyme variants with CS0333; format: biochemical; details: for Fold-improvement over ATG3707, CS0333 BG / Fold-improvement over ATG3707, CS0333 DR: Table 7A; for Fold-improvement over ATG3707, CS0333 BG / Fold-improvement over ATG3707, CS0333 DR / luminescence CS0333 BG / luminescence CS0333 DR: 1 mM CS0333; for Fold-improvement over ATG3707, CS0333 BG / luminescence CS0333 BG / Fold improvement over ATG3707, CS0333 BG: Bright-Glo buffer; for Fold-improvement over ATG3707, CS0333 DR / luminescence CS0333 DR / Fold improvement over ATG3707, CS0333 DR: Detection Reagent buffer; for luminescence CS0333 BG / luminescence CS0333 DR / Fold improvement over ATG3707, CS0333 BG / Fold improvement over ATG3707, CS0333 DR: Table 7B
Protocol: as §1

[4] = Kinetic analysis of ATG-3707 variants with CS0333; format: biochemical
Protocol: Additionally, Table 5 (below) includes kinetic analysis of the ATG-3707 variants identified above. Reagent compositions included CS0333 serially diluted 10-fold from 1 mM to 10 fM in reaction buffer with 2 mM ATP. […] Reactions were incubated at 25° C. for 3 min, and luminescence was read and then normalized to ATG-3707 activity tested in parallel. […] Since C2157D2 was selected for improved brightness in CellTiterGlo® buffer over ATG-3707, it still had beneficial properties.

[5] = Luminescence of ATG-3707 variants (second round epPCR) with CS0333; format: biochemical
Protocol: Reagent compositions included CS0333 diluted from 20 mM to 2 mM in reaction buffer with 2 mM ATP. […] Reactions were incubated at 25° C. for 3 min, and luminescence was read and then normalized to ATG-3707 activity tested in parallel.

Row | Molecule | DSF Tm [1] | Fold-improvement over ATG3707, CS0280 BG [2] | Fold-improvement over ATG3707, CS0280 DR [2] | Fold-improvement over ATG3707, CS0333 BG [3] | Fold-improvement over ATG3707, CS0333 DR [3] | Km ([4]; BrightGlo) [µM] | Vmax (RLU) ([4]; BrightGlo) | Km ([4]; Detection Reagent) [µM] | Vmax (RLU) ([4]; Detection Reagent) | DSF Tm (° C.) [1] [°C] | luminescence CS0280 BG [2] | luminescence CS0280 DR [2] | Fold improvement over ATG3707, CS0280 BG [2] | Fold improvement over ATG3707, CS0280 DR [2] | luminescence CS0333 BG [3] | luminescence CS0333 DR [3] | Fold improvement over ATG3707, CS0333 BG [3] | Fold improvement over ATG3707, CS0333 DR [3] | also measured
1 | C2157D2: SEQ ID NO: 74; H244W+T344A+I396K+S193A+N228D+L305F+S306P+I109V+K107N+T289S (protein) MADKNILYGPEPFYPLEDGTAGEQMFDALSRYAAIPGCIALTNAHTKENVLYEEFLKLSCRLAESFKKYGLKQNDTIAVCSENSLQFFLPVIASLYLGIIVAPVNDKYIERELIHSLGIVKPRIVFCSKNTFQKVLNVKSKLKSIETIIILDLNEDLGGYQCLNNFISQNSDSNLDVKKFKPYSFNRDDQVASIMFSSGTTGLPKGVMLTHKNIVARFSIAKDPTFGNAINPTSAILTVIPFHHGFGMMTTLGYFTCGFRVVLMHTFEEKLFLQSLQDYKVESTLLVPTLMAFLAKSALVEKYDLSHLKEIASGGAPLSKEIGEMVKKRFKLNFVRQGYGLTETTSAVLITPKGDAKPGSTGKIVPLHAVKVVDPTTGKILGPNEPGELYFKGPMKMKGYYNNEEATKAIIDNDGWLRSGDIAYYDNDGHFYIVDRLKSLIKYKGYQVAPAEIEGILLQHPYIVDAGVTGIPDEAAGELPAAGVVVQTGKYLNEQIVQDYVASQVSTAKWLRGGVKFLDEIPKGSTGKIDRKVLRQMLEKHTNGHHHHHHHH | 63 | 2.36 | 3.08 | 1.16 | 1.52 | 6.31 | 3,053,170 RLU | 97.1 | 3,677,773 RLU | – | – | – | – | – | – | – | – | – | –
2 | C2242E1: SEQ ID NO: 42; H244W+T344A+I396K+S193A+N228D+L305F+S306P+I109V+C38R+F55I+V262A+I422V (protein) MADKNILYGPEPFYPLEDGTAGEQMFDALSRYAAIPGRIALTNAHTKENVLYEEILKLSCRLAESFKKYGLKQNDTIAVCSENSLQFFLPVIASLYLGIIVAPVNDKYVERELIHSLGIVKPRIVFCSKNTFQKVLNVKSKLKSIETIIILDLNEDLGGYQCLNNFISQNSDSNLDVKKFKPYSFNRDDQVAAIMFSSGTTGLPKGVMLTHKNIVARFSIAKDPTFGDAINPTSAILTVIPFHWGFGMMTTLGYFTCGFRVALMHTFEEKLFLQSLQDYKVESTLLVPTLMAFLAKSALVEKYDFPHLKEIASGGAPLSKEIGEMVKKRFKLNFVRQGYGLTEATSAVLITPKGDAKPGSTGKIVPLHAVKVVDPTTGKILGPNEPGELYFKGPMKMKGYYNNEEATKAIIDNDGWLRSGDVAYYDNDGHFYIVDRLKSLIKYKGYQVAPAEIEGILLQHPYIVDAGVTGIPDEAAGELPAAGVVVQTGKYLNEQIVQDYVASQVSTAKWLRGGVKFLDEIPKGSTGKIDRKVLRQMLEKHTNGHHHHHHHH | 54 | 1.25 | 1.56 | 1.75 | 1.63 | 5.81 | 7,021,077 RLU | 109 | 5,366,355 RLU | – | – | – | – | – | – | – | – | – | Luminescence (RLU) BrightGlo ([5]; BrightGlo buffer, 25° C., 3 min): 5643850 RLU; Normalized Luminescence BrightGlo ([5]; BrightGlo buffer, normalized to ATG-3707): 1.45; Luminescence (RLU) CellTiterGlo ([5]; CellTiterGlo buffer, 25° C., 3 min): 708509 RLU; Normalized Luminescence CellTiterGlo ([5]; CellTiterGlo buffer, normalized to ATG-3707): 1.10; Luminescence (RLU) Detection Reagent ([5]; Detection Reagent buffer, 25° C., 3 min): 6604720 RLU; Normalized Luminescence Detection Reagent ([5]; Detection Reagent buffer, normalized to ATG-3707): 1.28
3 | C9673G4: SEQ ID NO: 96; H244W+T344A+I396K+S193A+N228D+L305F+S306P+I109V+C38R+F55I+A316W+T342S+V348I+I396I (protein) MADKNILYGPEPFYPLEDGTAGEQMFDALSRYAAIPGRIALTNAHTKENVLYEEILKLSCRLAESFKKYGLKQNDTIAVCSENSLQFFLPVIASLYLGIIVAPVNDKYVERELIHSLGIVKPRIVFCSKNTFQKVLNVKSKLKSIETIIILDLNEDLGGYQCLNNFISQNSDSNLDVKKFKPYSFNRDDQVAAIMFSSGTTGLPKGVMLTHKNIVARFSIAKDPTFGDAINPTSAILTVIPFHWGFGMMTTLGYFTCGFRVVLMHTFEEKLFLQSLQDYKVESTLLVPTLMAFLAKSALVEKYDFPHLKEIASGGWPLSKEIGEMVKKRFKLNFVRQGYGLSETTSAILITPKGDAKPGSTGKIVPLHAVKVVDPTTGKILGPNEPGELYFKGPMIMKGYYNNEEATKAIIDNDGWLRSGDIAYYDNDGHFYIVDRLKSLIKYKGYQVAPAEIEGILLQHPYIVDAGVTGIPDEAAGELPAAGVVVQTGKYLNEQIVQDYVASQVSTAKWLRGGVKFLDEIPKGSTGKIDRKVLRQMLEKHTNGHHHHHHHH | – | – | – | – | – | – | – | – | – | 71 | 1,298,420 | 104,671 | 1.64 | 3.58 | 18,508,700 | 12,268,900 | 3.48 | 2.88 | –
4 | C9715F9: SEQ ID NO: 95; H244W+T344A+1396K+S193A+N228D+L305F+S306P+I109V+C38R+A316W+T342S+V348I+K205N (protein) MADKNILYGPEPFYPLEDGTAGEQMFDALSRYAAIPGRIALTNAHTKENVLYEEFLKLSCRLAESFKKYGLKQNDTIAVCSENSLQFFLPVIASLYLGIIVAPVNDKYVERELIHSLGIVKPRIVFCSKNTFQKVLNVKSKLKSIETIIILDLNEDLGGYQCLNNFISQNSDSNLDVKKFKPYSFNRDDQVAAIMFSSGTTGLPKGVMLTHKNIVARFSIAKDPTFGDAINPTSAILTVIPFHWGFGMMTTLGYFTCGFRVVLMHTFEEKLFLQSLQDYKVESTLLVPTLMAFLAKSALVEKYDFPHLKEIASGGWPLSKEIGEMVKKRFKLNFVRQGYGLSEATSAILITPKGDAKPGSTGKIVPLHAVKVVDPTTGKILGPNEPGELYFKGPMKMKGYYNNEEATKAIIDNDGWLRSGDIAYYDNDGHFYIVDRLKSLIKYKGYQVAPAEIEGILLQHPYIVDAGVTGIPDEAAGELPAAGVVVQTGKYLNEQIVQDYVASQVSTAKWLRGGVKFLDEIPKGSTGKIDRKVLRQMLEKHTNGHHHHHHHH | – | – | – | – | – | – | – | – | – | 68 | 2,040,340 | 245,081 | 2.57 | 8.38 | 18,891,000 | 14,484,700 | 3.55 | 3.40 | –
